Substitutions are numbered along the chain they refer to. Names may count otherwise. “And” between values parts separate entries of the source, which are not always exact repeats. Identical values can stand only once.
B1: PNGaseF-deglycosylated CUB7,8 (domain or fragment, rat, UniProt O70244 1165-1389, looked up)
chain: CGGNLTTPTGVLTSPNYPMPYYHSSECYWRLEASHGSPFELEFQDFHLEHHPSCSLDYLAVFDGPTTNSRLIDKLCGDTTPAPIRSNKDVVLLKLRTDAGQQGRGFEINFRQRCDNVVIVNKTSGILESINYPNPYDKNQRCNWTIQATTGNTVNYTFLGFDVESYMNCSTDYVELYDGPQWMGRYCGNNMPPPGATTGSQLHVLFHTDGINSGEKGFKMQWFTH
modifications: N-glycans removed with PNGaseF
notes: cubilin, rat, CUB7 (1165–1277) and CUB8 (1278–1389) of full length cubilin UniProtKB O70244; also called CUB7,8 after PNGaseF treatment (+); His tagged CUB7,8 domain; not shown: His6, C-terminal, kept
B2: rat serum albumin (RSA) (natural protein, UniProt P02770 25-608, looked up)
chain: EAHKSEIAHRFKDLGEQHFKGLVLIAFSQYLQKCPYEEHIKLVQEVTDFAKTCVADENAENCDKSIHTLFGDKLCAIPKLRDNYGELADCCAKQEPERNECFLQHKDDNPNLPPFQRPEAEAMCTSFQENPTSFLGHYLHEVARRHPYFYAPELLYYAEKYNEVLTQCCTESDKAACLTPKLDAVKEKALVAAVRQRMKCSSMQRFGERAFKAWAVARMSQRFPNAEFAEITKLATDVTKINKECCHGDLLECADDRAELAKYMCENQATISSKLQACCDKPVLQKSQCLAEIEHDNIPADLPSIAADFVEDKEVCKNYAEAKDVFLGTFLYEYSRRHPDYSVSLLLRLAKKYEATLEKCCAEGDPPACYGTVLAEFQPLVEEPKNLVKTNCELYEKLGEYGFQNAVLVRYTQKAPQVSTPTLVEAARNLGRVGTKCCTLPEAQRLPCVEDYLSAILNRLCVLHEKTPVSEKVTKCCSGSLVERRPCFSALTVDETYVPKEFKAETFTFHSDICTLPDKEKQIKKQTALAELVKHKPKATEDQLKTVMGDFAQFVDKCCKAADKDNCFATEGPNLVARSKEALA
modifications: in MST: Texas Red-X succinimidyl ester or Oregon Green 488-X succinimidyl ester conjugate, dye:protein molar ratio 1:1
notes: serum albumin, rat, UniprotKB P02770; Labelled with dye in MST; also called rat albumin; source: bought: Sigma
B3: CUB7,8-N1285P, not treated with PNGaseF (domain or fragment, rat, UniProt O70244 1165-1389, looked up)
chain: B1 chain with N121P
modifications: N-glycans as made in 293F cells (N1168, N1303, N1319 by MS, Table 2)
notes: also called CUB7,8 N1285P mutant; source: 293F cells, purified as the other cubilin proteins (Ni-NTA Superflow, gel filtration)
B4: CUB6–8 (cubilin 6–8 domain), glycosylated, not treated with PNGaseF (domain or fragment)
chain: CLYDYTDNFGMLSSPNFPNNYPSNWECIYRITVGLNQQIALHFTDFTLEDYFGSQCVDFVEIRDGGYETSPLVGIYCGSVLPPTIISHSNKLWLKFKSDAALTAKGFSAYWDGSSTGCGGNLTTPTGVLTSPNYPMPYYHSSECYWRLEASHGSPFELEFQDFHLEHHPSCSLDYLAVFDGPTTNSRLIDKLCGDTTPAPIRSNKDVVLLKLRTDAGQQGRGFEINFRQRCDNVVIVNKTSGILESINYPNPYDKNQRCNWTIQATTGNTVNYTFLGFDVESYMNCSTDYVELYDGPQWMGRYCGNNMPPPGATTGSQLHVLFHTDGINSGEKGFKMQWFTHG
modifications: N-glycans as made in 293F cells

Tests used:
[1] = molecular target: RSA 20 mM glucose (RSA20G) (rat) (UniProt P02770); assay: MST; Monolith NT.115, standard capillaries, 25 °C, 67 mM NaPO4, 150 mM NaCl, 0.05% Tween 20, pH 7.4 + 1 mM CaCl2; albumin labelled with a fluorescent dye (1:1), cubilin domain unlabelled
[2] = molecular target: RSA 500 mM glucose (RSA500G) (rat) (UniProt P02770); assay: as above
[3] = molecular target: RSA 1 mM methylglyoxal (RSA1MGO) (rat) (UniProt P02770); assay: as above
[4] = molecular target: RSA 200 mM glucose (RSA200G) (rat) (UniProt P02770); assay: as above
[5] = molecular target: RSA 5 mM methylglyoxal (RSA5MGO) (rat) (UniProt P02770); assay: as above
rat serum albumin (RSA) [6] = molecular target: B2; assay: as above
[7] = molecular target: Albumin (Rattus norvegicus) (UniProt P02770); conditions: cited from earlier work
rat serum albumin (RSA) [8] = molecular target: B2; assay: MST; as a1 but at pH 5.0 (buffer not told); albumin labelled
human albumin = molecular target: T1, human albumin (human, UniProt P02768 25-609, fluorescent dye conjugate for MST (Texas Red-X or Oregon Green 488-X succinimidyl ester)); assay: MST; Monolith NT.115, standard capillaries, 25 °C, 67 mM NaPO4, 150 mM NaCl, 0.05% Tween 20, pH 7.4 + 1 mM CaCl2; albumin labelled with a fluorescent dye (1:1), cubilin domain unlabelled; conditions: both partners purified
T1 construct: albumin, human
T1 sequence (P02768 25-609): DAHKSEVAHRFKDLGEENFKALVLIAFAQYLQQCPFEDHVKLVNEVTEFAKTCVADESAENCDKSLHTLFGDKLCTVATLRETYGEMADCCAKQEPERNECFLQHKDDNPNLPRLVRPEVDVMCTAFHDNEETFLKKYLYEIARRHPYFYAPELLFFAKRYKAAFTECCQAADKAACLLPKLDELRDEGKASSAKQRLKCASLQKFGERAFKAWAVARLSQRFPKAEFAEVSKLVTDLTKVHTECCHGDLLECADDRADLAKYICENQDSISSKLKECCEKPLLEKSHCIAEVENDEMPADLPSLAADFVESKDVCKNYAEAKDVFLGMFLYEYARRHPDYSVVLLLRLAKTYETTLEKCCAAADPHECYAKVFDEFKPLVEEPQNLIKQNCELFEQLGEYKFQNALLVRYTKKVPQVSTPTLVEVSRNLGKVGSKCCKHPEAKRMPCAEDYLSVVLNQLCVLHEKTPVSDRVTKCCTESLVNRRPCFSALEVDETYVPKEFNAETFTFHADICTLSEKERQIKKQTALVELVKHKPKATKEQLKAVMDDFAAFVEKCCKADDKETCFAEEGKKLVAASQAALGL

rabbit albumin = molecular target: T2, rabbit albumin (rabbit, UniProt P49065 25-608, fluorescent dye conjugate for MST (Texas Red-X or Oregon Green 488-X succinimidyl ester)); assay: as above; conditions: both partners purified
T2 construct: albumin, rabbit
T2 sequence (P49065 25-608): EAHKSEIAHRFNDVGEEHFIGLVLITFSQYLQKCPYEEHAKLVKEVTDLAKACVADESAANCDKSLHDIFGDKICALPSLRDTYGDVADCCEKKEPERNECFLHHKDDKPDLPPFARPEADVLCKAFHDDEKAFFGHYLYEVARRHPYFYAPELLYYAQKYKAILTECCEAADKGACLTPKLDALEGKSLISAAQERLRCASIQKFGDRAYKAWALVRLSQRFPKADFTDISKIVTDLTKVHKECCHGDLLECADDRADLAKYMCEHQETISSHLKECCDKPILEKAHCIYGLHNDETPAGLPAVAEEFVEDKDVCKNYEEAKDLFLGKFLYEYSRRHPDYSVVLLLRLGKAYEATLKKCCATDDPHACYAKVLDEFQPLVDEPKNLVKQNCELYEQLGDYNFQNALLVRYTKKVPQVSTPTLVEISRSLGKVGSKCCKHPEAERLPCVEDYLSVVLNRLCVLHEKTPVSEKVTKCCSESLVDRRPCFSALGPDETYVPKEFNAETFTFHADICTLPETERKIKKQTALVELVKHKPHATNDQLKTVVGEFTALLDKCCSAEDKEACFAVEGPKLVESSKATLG

bovine albumin = molecular target: T3, bovine albumin (bovine, UniProt P02769 25-607, fluorescent dye conjugate for MST (Texas Red-X or Oregon Green 488-X succinimidyl ester)); assay: as above; conditions: both partners purified
T3 construct: albumin, bovine
T3 sequence (P02769 25-607): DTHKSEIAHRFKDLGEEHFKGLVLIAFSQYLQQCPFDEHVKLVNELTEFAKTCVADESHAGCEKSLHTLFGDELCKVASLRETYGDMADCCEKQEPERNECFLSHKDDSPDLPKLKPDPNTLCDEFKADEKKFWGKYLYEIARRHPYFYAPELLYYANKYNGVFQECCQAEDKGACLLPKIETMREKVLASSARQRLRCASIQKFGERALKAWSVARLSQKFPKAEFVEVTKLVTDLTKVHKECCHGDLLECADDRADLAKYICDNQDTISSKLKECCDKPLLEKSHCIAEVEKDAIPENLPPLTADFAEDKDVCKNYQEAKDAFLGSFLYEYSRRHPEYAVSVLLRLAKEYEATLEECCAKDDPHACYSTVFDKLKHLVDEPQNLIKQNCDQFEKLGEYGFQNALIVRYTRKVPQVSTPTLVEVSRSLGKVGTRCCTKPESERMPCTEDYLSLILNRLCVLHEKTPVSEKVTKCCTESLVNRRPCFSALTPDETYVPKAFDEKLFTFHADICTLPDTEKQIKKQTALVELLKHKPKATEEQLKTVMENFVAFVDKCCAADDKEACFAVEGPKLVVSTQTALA

rat serum albumin (RSA) [9] = molecular target: B2; assay: MST; as a1 but at pH 6.0; albumin labelled
[10] = molecular target: the molecule itself; assay: SEC-MALS; Agilent Infinity II HPLC with Wyatt DAWN HELEOS II and Optilab T-rEX, 25 °C, running buffer with 2% v/v glycerol; cubilin domains not treated with any glycosidase
[11] = molecular target: the molecule itself; assay: SEC-MALS; data not shown; CUB7,8N1285P

With “PNGaseF-deglycosylated CUB6–8 (domain or fragment)” as the molecule, how does the Kd [1] read?
The Kd was 2000 µM.

What about the Kd [2] of the same molecule?
The Kd was greater than 100 µM.

What about the Kd [3] of the same molecule?
Its Kd is 28 µM.

And the Kd [4]?
The Kd was 9.4 µM.

And the Kd [5]?
The Kd was greater than 100 µM.

And the Kd (rat serum albumin (RSA) [6])?
The Kd was 500 to 1000 µM.

What about the Kd (rat serum albumin (RSA) [6]; record 2) of the same molecule?
Its Kd is 0.5 to 1 µM and 1 µM.

For “CUB7,8 (cubilin 7,8 domain), glycosylated, not treated with PNGaseF (from UniProt O70244 1165-1389) (domain or fragment)”, which Kd (rat serum albumin (RSA) [6]) is on record?
Its Kd is greater than 100 µM.

For Cubilin (from UniProt O70244), which Kd [7] is on record?
The Kd was 0.63 µM.

Which results are given for B1?
Kd (rat serum albumin (RSA) [8]): 1400 µM; Kd [1]: 2500 µM; Kd [2]: > 100 µM; Kd [3]: 35 µM; Kd [4]: 25.6 µM; Kd [5]: > 100 µM; Kd (human albumin): 0.95 to 1.5 µM; Kd (rabbit albumin): 0.9 to 1.4 µM; Kd (bovine albumin): > 100 µM; Kd (rat serum albumin (RSA) [6]): 0.5 to 1.2 µM; Kd (rat serum albumin (RSA) [6]; record 2): 500 to 1000 µM; Kd (rat serum albumin (RSA) [9]): 1700 µM

For B2, which “stoichiometry N” value [10] is on record?
The value was 2.

With B3 as the molecule, how does the “stoichiometry N” value [11] read?
Its value is 2.

Which Kd (rat serum albumin (RSA) [6]; both partners purified) does the source give for B4 here?
The Kd was greater than 100 µM.

From article PMC9485058, “Glycosylation of a key cubilin Asn residue results in reduced binding to albumin” (The Journal of Biological Chemistry, 2022)
